From the supplement of paper PMC10567573

B1: ALDH8A1 (parent)
chain: WSSRSPQERSRVLNQVADLLEQSL
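Further: lentivirally expressed fusions sorted by FACS into six bins by GFP to DsRed ratio, PSI derived from sequencing read proportions per bin multiplied by bin number.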

Variants of: B1
Assay: protein stability index of a GFP-peptide fusion (GPS, HEK-293T) (PSI 1-6); higher = more stable
Conditions: c terminus: a fixed tail appended
In the case of WSSRSPQERSRVLNQVVDLLEQSL, the protein stability index is reported as 2.69.
WSSRSPQERSRVLNQVHDLLEQSL showed a protein stability index of 2.54.
With WSSRSPQERSRVLNQVQDLLEQSL the protein stability index was 2.5.
For WSSRSPQERSRVLNQVKDLLEQSL, the protein stability index was 3.17.
Work on WSSRSPQERSRVLNQVNDLLEQSL yielded a protein stability index of 3.3.
WSSRSPQERSRVLNQVRDLLEQSL showed a protein stability index of 1.9.
WSSRSPQERSRVLNQVPDLLEQSL showed a protein stability index of 3.53.
WSSRSPQERSRVLNQVWDLLEQSL showed a protein stability index of 2.33.
WSSRSPQERSRVLNQVCDLLEQSL showed a protein stability index of 2.34.
WSSRSPQERSRVLNQVSDLLEQSL gave a protein stability index of 3.02.
Work on WYSRSPQERSRVLNQVADLLEQSL yielded a protein stability index of 2.65.
In the case of WVSRSPQERSRVLNQVADLLEQSL, the protein stability index is reported as 2.76.
WTSRSPQERSRVLNQVADLLEQSL gave a protein stability index of 2.46.
Variant WESRSPQERSRVLNQVADLLEQSL has a protein stability index of 2.9.
WFSRSPQERSRVLNQVADLLEQSL gave a protein stability index of 2.81.
In the case of WHSRSPQERSRVLNQVADLLEQSL, the protein stability index is reported as 2.56.
WSCRSPQERSRVLNQVADLLEQSL showed a protein stability index of 2.26.
For WSDRSPQERSRVLNQVADLLEQSL, the protein stability index was 2.77.
With WSYRSPQERSRVLNQVADLLEQSL the protein stability index was 2.25.
WSERSPQERSRVLNQVADLLEQSL gave a protein stability index of 3.5.
With WSRRSPQERSRVLNQVADLLEQSL the protein stability index was 2.28.
With WSQRSPQERSRVLNQVADLLEQSL the protein stability index was 2.52.
WSKRSPQERSRVLNQVADLLEQSL showed a protein stability index of 2.53.
In the case of WSARSPQERSRVLNQVADLLEQSL, the protein stability index is reported as 1.98.
Work on WSSRSPQERSIVLNQVADLLEQSL yielded a protein stability index of 2.21.
Work on WSSRSPQERSWVLNQVADLLEQSL yielded a protein stability index of 1.86.
In the case of WSSRSPQERSKVLNQVADLLEQSL, the protein stability index is reported as 1.99.
WSSRSPQERSDVLNQVADLLEQSL showed a protein stability index of 3.37.
WSSRSPQERSTVLNQVADLLEQSL showed a protein stability index of 2.48.
WSSRSPQERSQVLNQVADLLEQSL gave a protein stability index of 2.38.
WSSRSPQERSSVLNQVADLLEQSL showed a protein stability index of 2.74.
Work on WSSRSPQERSEVLNQVADLLEQSL yielded a protein stability index of 3.27.
For WSSRSPQERSYVLNQVADLLEQSL, the protein stability index was 2.22.
WSSRPPQERSRVLNQVADLLEQSL gave a protein stability index of 2.57.
With WSSRNPQERSRVLNQVADLLEQSL the protein stability index was 2.43.
WSSRFPQERSRVLNQVADLLEQSL gave a protein stability index of 1.99.
For WSSRCPQERSRVLNQVADLLEQSL, the protein stability index was 2.56.
For WSSRYPQERSRVLNQVADLLEQSL, the protein stability index was 1.6.
With WSSRQPQERSRVLNQVADLLEQSL the protein stability index was 3.01.
In the case of WSSRAPQERSRVLNQVADLLEQSL, the protein stability index is reported as 2.62.
WSSRKPQERSRVLNQVADLLEQSL showed a protein stability index of 2.52.
For WSSRSPQERSRVLAQVADLLEQSL, the protein stability index was 2.56.
Work on WSSRSPQERSRVLTQVADLLEQSL yielded a protein stability index of 2.82.
Work on WSSRSPQERSRVLRQVADLLEQSL yielded a protein stability index of 3.47.
Work on WSSRSPQERSRVLVQVADLLEQSL yielded a protein stability index of 2.1.
In the case of WSSRSPQERSRVLPQVADLLEQSL, the protein stability index is reported as 3.21.
With WSSRSPQERSRVLGQVADLLEQSL the protein stability index was 2.38.
Variant WSSRSPQERSRVLDQVADLLEQSL has a protein stability index of 2.28.
For WSSRSPQERSRVLCQVADLLEQSL, the protein stability index was 2.21.
WSSRSPQERSRVLYQVADLLEQSL showed a protein stability index of 4.15.
In the case of WSSRSPQERSRVLIQVADLLEQSL, the protein stability index is reported as 2.02.
WSSRSPQERSRVLNQVADLLSQSL gave a protein stability index of 2.27.
In the case of WSSRSPQERSRVLNQVADLLKQSL, the protein stability index is reported as 1.61.
WSSRSPQERSRVLNQVADLLIQSL showed a protein stability index of 2.09.
WSSRSPQERSRVLNQVADLLRQSL gave a protein stability index of 2.26.
With WSSRSPQERSRVLNQVADLLFQSL the protein stability index was 2.47.
WSSRSPQERSRVLNQVADLLNQSL gave a protein stability index of 2.52.
Variant WSSRSPQERSRVLNQVADLLEQSS has a protein stability index of 3.61.
With WSSRSPQERSRVLNQVADLLEQSF the protein stability index was 2.03.
WSSRSPQERSRVLNQVADLLEQSW gave a protein stability index of 2.19.
With WSSRSPQERSRVLNQVADLLEQSQ the protein stability index was 3.4.
With WSSRSPQERSRVLNQVADLLEQSH the protein stability index was 3.96.
WSSRSPQERSRVLNQVADLLEQSD showed a protein stability index of 4.17.
WSSRSPQERSRVLNQVADLLEQSG showed a protein stability index of 3.16.
In the case of WSSRSPQERSRVLNQVADLLEQSC, the protein stability index is reported as 2.9.
For WSSRSPQERSRVLNQVADLLEQSV, the protein stability index was 2.29.
For WSSRSPQERSRVLNQVADLLEQSR, the protein stability index was 3.49.
With WSSRSPQERSRVLNQVADLLEQSN the protein stability index was 2.96.
WSSRSPQERSRVLNQVADLLEQSM showed a protein stability index of 2.86.
Work on WSSRSPQERSRVLNQVADLLEQSI yielded a protein stability index of 1.76.
With WSSRSPQERSRVLNQVADLLEQSY the protein stability index was 1.86.
WSSRSPQERSRVLNAVADLLEQSL showed a protein stability index of 1.51.
WSSRSPQERSRVLNFVADLLEQSL showed a protein stability index of 1.54.
For WSSRSPQERSRVLNVVADLLEQSL, the protein stability index was 1.75.
For WSSRSPQERSRVLNEVADLLEQSL, the protein stability index was 3.03.
Work on WSSRSPQERSRVLNDVADLLEQSL yielded a protein stability index of 3.31.
For WSSRSPQERSRVLNRVADLLEQSL, the protein stability index was 2.85.
WSSRSPQERSRVLNQVADVLEQSL showed a protein stability index of 3.07.
With WSSRSPQERSRVLNQVADELEQSL the protein stability index was 4.4.
WSSRSPQERSRVLNQVADCLEQSL showed a protein stability index of 3.14.
WSSRSPQERSRVLNQVADTLEQSL showed a protein stability index of 3.74.
For WSSRSPQERSRVLNQVADHLEQSL, the protein stability index was 3.97.
WSSRSPQERSRVLNQVADSLEQSL showed a protein stability index of 4.14.
Work on WSSRSPQERSRVLNQVADDLEQSL yielded a protein stability index of 3.72.
In the case of WSSRSHQERSRVLNQVADLLEQSL, the protein stability index is reported as 2.73.
Work on WSSRSIQERSRVLNQVADLLEQSL yielded a protein stability index of 2.44.
WSSRSYQERSRVLNQVADLLEQSL showed a protein stability index of 1.98.
WSSRSAQERSRVLNQVADLLEQSL gave a protein stability index of 2.13.
With WSSRSNQERSRVLNQVADLLEQSL the protein stability index was 2.6.
WSSRSWQERSRVLNQVADLLEQSL showed a protein stability index of 2.9.
In the case of WSSRSFQERSRVLNQVADLLEQSL, the protein stability index is reported as 1.84.
Work on WSSRSMQERSRVLNQVADLLEQSL yielded a protein stability index of 1.99.
WSSRSDQERSRVLNQVADLLEQSL gave a protein stability index of 3.19.
Variant WSSRSTQERSRVLNQVADLLEQSL has a protein stability index of 3.1.
